Reference: the nanobody polyreactivity screen of Harvey et al. (2022)

Experiment: yeast display, Sf9 membrane polyspecificity reagent, FACS + sequencing; frameworks hold sequencing errors
Procedure, shortened: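 Galactose induction of a Saccharomyces cerevisiae BJ5465 synthetic nanobody display library ran 36–48 hours. The cells were then stained for 1 hour at 4 °C with 10% biotinylated, detergent-solubilized Sf9 membrane reagent, pulled down on streptavidin microbeads and FACS-sorted into low and high (top ~1%) gates on expression and reagent-binding fluorescence. Labels for polyreactivity follow the gate of origin.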

Sequence | polyreactivity (PSR sort gate)
QVQLVESGGGLVQAGGSLSLSCAASGRTFSSYVMGWYRPAPGNERELVAAITQSSSRTYYADSVKGRFTISRDNAKNTVYLQMNSLKRVYTAVYYCNAALYPYLQYYYWGLGTQVTVSS | low polyreactivity
QVQLVESGGGLVQAGGSLSLSCAASGRTLIRNAMGWYRQAPGKGRELVAAINSGGITNYADSVKGRFTISRDNAKNTVYLQMNSLKPEDTAVYYCNDRQVLYGLYLRAYPYEYWGQGTQVTVSS | low polyreactivity
QVQLVESGGGLVQAGGSLSLSCAASGSIFWSYAMGWYRQAPGKERELVAAITTDGGTNYADSVKGRFTISRDNAKNTVYLQMNSLKPVDTAVYYCAADTDPKPRIDYTLRMDYWGHGTQVTVSS | low polyreactivity
QVQLVESGGGLVQAGGSLSLSCAASGSIFYHNAMGWYRQAPGKERELVAAITGSGGSTYYADSVKGRFTISRDNAKNTVYLQMNSLKPEDTAVYYCAAVQLYQKHQITYVAHEYWGQGTQVTVSS | low polyreactivity
QVQLVESGGGLVQAGGSLSLSCAASGSIFYSNSMGWYRQAPGKERELVAAINWRGGSTYYADSVKGRFTISRDNAKNSVYLQMNSLKPEDTAVDYCAAVYPVHLRGQYPIPKYNYWGQGTQVTVSS | low polyreactivity
QVQLVESGGGLVQAGGSLSLSCAASGSIFYVYAMGWYRQAPGKERELVASINKSGGSTYYADSVKGRFTISRDNAKNTVYLQMNSLKPEDTAVYYCAARYGWPRVGFQYPAHVGFDYWGQGTQVTVSS | low polyreactivity
QVQLVESGGGLVQAGGSLSLSCAASGSSFSLYTMGWYRQAPGKERDLVASISQSGGSTYYADSVKGRFTISRDNAKNTVYLQMNSLKPEDTAVYFWNAKGRSGTLTLYYYWGQGTQVTVSS | low polyreactivity
QVQLVESGGGLVQAGGSLSLSCAASGSTFAFNAMGWYRQAPGKERELVAAIYSDGSTDYADSVKGRFTISRDNAKNTVYLQMNSLKPEDTAVYYCAADWGWRYVLPVGWFRYGYWGQGTQVTVSS | low polyreactivity
QVQLVESGGGLVQAGGSLSLSCAASGSTFDYYAMGWYRQAPGKERELVADITYSGGSTYYADSVKGRFTISRDNAKNTVYLQMNSLKPEDTAVYYCNAYYTVYTRYDYWGQGTQVTVSS | high polyreactivity
QVQLVESGGGLVQAGGSLSLSCAASGSTFLKYTMGWYRQAPWKERELVAAISKSGGSTYYADSVKGRFTISRDNAKNTVYLQMNSLKPEDTAVYYCAKGRYWVYSYGYGYWGQGTQVTVSS | high polyreactivity
QVQLVESGGGLVQAGGSLSLSCAASGSTFNRNAMGWDRQAPGKEREFVAAITWSGGSTYYADSVKGRFTISRDNAKNTVYLQMNSLKPEDTAVYYCNADRFSSRHSYDYWGQGTQVTVSS | low polyreactivity
QVQLVESGGGLVQAGGSLSLSCAASGSTFVYNAMGWYRKAPGKERELVAAISSGGSTNYADSVKGRFTISRDNAKNTVYFQMKSLKPEDNRSEYSRYVVYDYWGQGTQVTVSS | low polyreactivity
QVQLVESGGGLVQAGGSLSLSCAASGYTFPYYTMGWYRQAPGKERELVATITRRGDSTYYADSVKGRFTISRDNAKNTVYLQMNSLKPEDTAVYYCNTASYGRHQFRKSSKMDYWGQGTQVTVSS | high polyreactivity
QVQLVESGGGLVQAGGSLSLSCAATGFTFRPYAMAWYRQATGKERELVAAITSGDSTNYADSVKGRFTISRDNAKKSVYLQMISVKAEDTAVFYCAADSTGRPSVSYDYWGQGTQVTVSS | low polyreactivity
QVQLVESGGGLVQAGGSLSLSCAATGINYGDYAMGWYRQAPGKERELVAAISSDTSTNYADSVKGRFTISRDNAKNTVYLQMNSLKPEDTAVYECAAEGSYYGWYQGFDYWGQGTQVTVSS | low polyreactivity
QVQLVESGGGLVQAGGSLSLSCAATGRIFDGNVMGWYRQAPGKERELVAAISSGDSTNYADSVKGRFTISRDNAKNTVYLQRNSLKTEDTAVYDCNRTPNSGGYDRFYGGDFYYWGQGTQVTVSS | low polyreactivity
QVQLVESGGGLVQAGGSLSLSCAATGRTFVKNAMGWYRQAPGKERELVASISRSGGSTYYADSVKGRFTISRDTAKNTVYLQMNSLKTEDTAVYYCNAAVYGGYSRSRYGYWGQGTQVTVSS | high polyreactivity
